Data taken from the supplement of paper PMC10126150.
± gives the standard deviation of the averaged measurements.

System: ATP
Experiment: switch fluorescence ratio, 500 uM ATP over buffer (Cy3 cluster intensity, sum of 5 cycles each) (fold (ratio)); higher = stronger signal-on switching upon ATP binding; sequences stand for … in TCGTCGGCAGCGTCAGATGTGTATAAGAGACAGTTTTTTTTTTTTTTTTTTTTTTTTT…TC
Conditions: aptamer strand: ATP DNA aptamer (quencher-CACCTGGGGGAGTATTGCGGAGGAAGG + anchor), 100 nM annealed; ATP concentration: 500 uM
Procedure, shortened: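 The quencher-labelled ATP aptamer, at 100 nM, was annealed to Cy3-labelled switching-strand clusters on a modified Illumina MiSeq flow-cell. The clusters were imaged in selection buffer, then after 15 min with 500 uM ATP at 22 °C, and this buffer/ATP cycle ran five times with NaOH stripping and re-annealing between runs. Per-cluster fluorescence ratios, summed target-cycle over summed buffer-cycle Cy3 intensity, were averaged per switch-domain sequence. Clusters outside 100-1000 RFU were excluded.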
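Further: ATP exposure 15 min at 22 °C before imaging.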

Sequence	switch fluorescence ratio
ACGGTGTAGG	1.11 ± 0.12
TAGGTGCCTG	1.07 ± 0.03
AAGGAACGGC	0.963 ± 0.043
GAGGCCTTAC	1.69 ± 0.043
CAGGGGCGGC	0.923 ± 0.064
CCTGTTTTCG	1.06 ± 0.05
AAGTGGGCTG	0.981 ± 0.023
TAATTCTTTT	0.986 ± 0.029
CTGTGGCAGC	1.033 ± 0.0099
CAGTGACAGT	1.028 ± 0.0014
GAGTTTGGGC	1.01 ± 0.039
GGTGCCAAGG	0.959 ± 0.02
AGGGACGCTT	1.14 ± 0.12
GGGTGAGTCG	1.02 ± 0.037
GTTTTAAGTG	0.981 ± 0.034
GTGGCGTGCT	0.976 ± 0.045
AGAATCAGGC	1.04 ± 0.17
CGGAAAAAAG	1.018 ± 0.007
GGGGATGGGG	1.02 ± 0.044
TGTGGTGGGA	0.98 ± 0.02
AAAGTGGGAT	1.03 ± 0.019
TTGTGTGTGT	0.993 ± 0.019
TAAGTAATTT	1.01 ± 0.042
CGGTAAACAC	1.06 ± 0.047
TACGATGGTT	0.989 ± 0.028
TGACTGGCTT	1.014 ± 0.01

Sequence	switch fluorescence ratio
TGTGAACGTA	1.01 ± 0.052
TATGCGGGCG	0.939 ± 0.072
GATGTAGACT	0.9818 ± 0.0033
TTGTCTGGGC	0.984 ± 0.032
GGGCCCGATT	0.976 ± 0.037
GGTGGGAGTT	1.04 ± 0.032
GCGGTGGATC	1.04 ± 0.027
TCGTGGCTGT	1 ± 0.042
GAAATGCGCA	1.08 ± 0.17
GGTAGATAGT	0.979 ± 0.029
AGTTTTAGTA	0.974 ± 0.03
ATGGGCTAGG	0.9702 ± 0.0058
GGGGAGCGGG	0.99834 ± 0.00014
GAGTACTTAG	1.03 ± 0.011
TTCTAAATGT	0.9995 ± 0.0021
ATAGTTTGCC	0.994 ± 0.043
CATTTTTACG	1.01 ± 0.026
TTAAAAGGT	1.04 ± 0.056
GGCGCACTGT	1.02 ± 0.021
TGGCGCCCTG	0.998 ± 0.069
ATTTACGTAT	1.06 ± 0.044
CCGTTGAATT	1.008 ± 0.0056
GCAAGGTTTT	0.979 ± 0.027
ATGGTAGTTG	0.985 ± 0.018
CGGCGTTGCT	0.981 ± 0.045
GAAATTATCA	0.977 ± 0.025

Sequence	switch fluorescence ratio
CTCCTAAAGA	1.05 ± 0.013
CAGCGGGGTG	1.11 ± 0.15
TGGTGGGTAC	1.03 ± 0.084
CTATCACCTG	1.05 ± 0.021
AGGCCAGCTG	0.993 ± 0.062
AGGGGCTCGT	1 ± 0.012
GACGGAGGCT	1.04 ± 0.042
TAAATGTTGT	0.9869 ± 0.0055
GTGGATGTAC	1.06 ± 0.05
CGTAGTAAAT	1.062 ± 0.0087
AGAATCGGCA	0.997 ± 0.031
TTTCGTGGGG	0.992 ± 0.056
TTCTTAATTT	1 ± 0.025
TACAAATTGT	1.03 ± 0.025
AGGGCGTTTG	0.998 ± 0.018
GCATTTCCCG	1.06 ± 0.091
CGGGGGGTG	1.01 ± 0.05
ATAGGTAGCG	1.01 ± 0.023
TCAGATAGCG	0.98 ± 0.043
GTTATTGCTT	0.98 ± 0.068
ATCAAGTCGG	0.969 ± 0.02
GCAGGATGAA	0.97 ± 0.042
CTATCGATAG	0.993 ± 0.035
GTTTGTGAAC	0.9821 ± 0.006
